Data as given in PMC9542197 (Chembiochem, 2022).

Experiments:
[1] = biological target: T1, TmMtaD (SAH deaminase from Thermotoga maritima) (Thermotoga maritima, UniProt Q9X034); test: GDH-coupled NADH oxidation at […] nm; type: biochemical; details: 50 mM potassium phosphate pH 7.5, 50 mM KCl, 20 mM MgCl2
T1 sequence (Q9X034 1-406): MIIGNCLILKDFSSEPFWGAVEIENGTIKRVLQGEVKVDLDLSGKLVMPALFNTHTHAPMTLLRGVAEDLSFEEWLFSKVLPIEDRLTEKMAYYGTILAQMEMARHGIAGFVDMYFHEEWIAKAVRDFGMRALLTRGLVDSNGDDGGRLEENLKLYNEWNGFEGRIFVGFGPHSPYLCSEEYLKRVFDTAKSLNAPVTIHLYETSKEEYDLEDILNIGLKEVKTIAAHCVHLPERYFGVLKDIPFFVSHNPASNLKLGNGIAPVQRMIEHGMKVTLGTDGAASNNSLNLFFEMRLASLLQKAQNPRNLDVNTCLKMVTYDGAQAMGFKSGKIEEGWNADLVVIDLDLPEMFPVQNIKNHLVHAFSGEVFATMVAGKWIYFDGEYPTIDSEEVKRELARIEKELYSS

[2] = tested on: NCCc1ccc(O)c(O)c1; test: purified protein; details: 200 μM SAM, 50 mM HEPES pH 7.5, 100 mM KCl, 20 mM MgCl2, 25 °C
[3] = substrate: NCCc1ccc(O)c(O)c1; test: purified protein; type: biochemical, Rattus norvegicus; details: 200 μM SAM, 50 mM HEPES pH 7.5, 100 mM KCl, 20 mM MgCl2, 25 °C

Which Km [1] does the source give for `Nc1ncnc2c1ncn2[C@@H]1O[C@H](CSCC[C@H](N)C(=O)O)[C@@H](O)[C@H]1O` [SAH] here?
The Km was 180 ± 60 µM.

What does the source list for “MxSafC (SafC O-MT from Myxococcus xanthus) (Myxococcus xanthus)”?
Km [2]: 270 ± 14 µM; kcat [2]: 0.039 ± 0.001 s⁻¹

B1: RnCOMT (catechol-O-MT from Rattus norvegicus) (Rattus norvegicus) (protein)
chain: MGDTKEQRILRYVQQNAKPGDPQSVLEAIDTYCTQKEWAMNVGDAKGQIMDAVIREYSPSLVLELGAYCGYSAVRMARLLQPGARLLTMEMNPDYAAITQQMLNFAGLQDKVTILNGASQDLIPQLKKKYDVDTLDMVFLDHWKDRYLPDTLLLEKCGLLRKGTVLLADNVIVPGTPDFLAYVRGSSSFECTHYSSYLEYMKVVDGLEKAIYQGPSSPDKS
What does the source list for B1?
Km [3]: 144 ± 15 µM; kcat [3]: 0.072 ± 0.002 s⁻¹
